The nanobody polyreactivity screen of Harvey et al. (2022)

Assay: yeast display, Sf9 membrane polyspecificity reagent, FACS + sequencing; frameworks hold sequencing errors
In short: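 Galactose-induced (36–48 hours) yeast carrying a synthetic nanobody display library were exposed to 10% biotinylated, detergent-solubilized Sf9 membrane reagent at 4 °C for 1 hour. FACS followed streptavidin microbead enrichment, using low and high (top ~1%) gates for expression (anti-HA) and reagent binding (streptavidin). Colony PCR, MiSeq 2 × 250 sequencing and CDR-length filtering followed. Labels for polyreactivity reflect the gate of origin.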

Sequence | polyreactivity (PSR sort gate)
QVQLVESAGGLVQAGGSLRLSCAASGLTFPPNAMGWYRHAPGKERELVADSGGSTNYADSVKGRFTISRDNAKNTVYLQMNSLKPEDTAVYYCAAPPYSDGQWDDYWGQGSQVTVSS | low polyreactivity
QDQLLESGGGLVQAGGSLRLSCAASGSILQDYAMGWYRQAPGKERELVAAISNSGDSTYYADSLKGRFTISRENAKTTVYLQLNSLKPEDTAVYYCNAAVYPYAMYSGGLDYDYWGHGTQVTVSS | low polyreactivity
QVQLLESGGGLVQAGGSLRLSCAASGIIFSSNAMGWYRKAPGKERELVAAITRRGGSTRYADSVKGRFTISRDNAKNTVYLQMNSLKPEDTAVYYCNALSGYPYRWGISYPMDYWGQGTQVTVSS | high polyreactivity
QVQLVESGGGLVQAGGSLRLSCAASGFIFQQNAMGWYIQAPGKERELVAAISRSGGRTYYADSVKGRFTISRDNAKNTVYLQMNSLKPEDSAVYYCATRFYTKAFEYDYWGQGTQVTVSS | high polyreactivity
QVQLVESGGGLVQAGGSLRLSCAASGSTVDFNAMGWYRQAPGKERELVAGISRDGGSTYYADSVKGRFTISRDYAKNTVYLEMNSLKPEDTAVYYCAVEAWSVPPYDYWGQGTQVTVSS | low polyreactivity
QVQLVESGGGLVQAGGSLRLSCAASGSIFQRNAMGWYRQAPGKERELVAAISRSGGRTYYADSVKGRFTISRDNAKNTVYLQMNILKPEDTAVYYCAADSPYIQNRFEYWGQGTQVTVSS | high polyreactivity
QVQLVESGGGLVQAGGSLRLSCAASGSIFTNYAMGWYRQAPGKERELVAAISVGGGRTYYADSVKGRFTISRDNAKNTVYLQMNSLKPEDTAVYYCAASRRTRSMNYWGQGTQVTVSS | high polyreactivity
QVQLQESGGGLVQAGGSLGCEASGNISTRSEMGWYRQAPGKEREFVATINSGGITNYADSVKGRFTISRDNAKNTVYLRMNSLKPEDTAVYYRAVYGYFSDPYDYWGQGTQVTVSS | low polyreactivity
QVQLAESGGGLVQAGGSLRLSCAASGSIFRLNAMGWYRQAPGKERELVAAINSGTNTYYADSVKGRFTISRDNAMNTVYLQMNSLKPEDTAVYYCAADWNDWHYDYWGQGTQVTVSS | low polyreactivity
QVQLVESGGGLVQAGGSLRLSCAASGRIFTQNAMGWYRQAPGKERELVAAITSGGSTYYADSVKGRFTISRDNAKNTVYLQMNSLKPEDTAVYYCAAEYGTYFVRYYAGASYRYGYWGQGTQVTVSS | low polyreactivity
QVQLVESGGGLVLAGGSLRLSCAASGFTFFIYVMGWYRQAPGKEREFVAAISSSGDSTYYADSVKGRFTISRDNAKNTVYLQMNSLKPEDTAVYYCNAGDKFSSYWYDYWGQGTQVTVSS | low polyreactivity
QVQLVESGGGLVQAGGSLRLSCAASGSTFSRYAMGWYRQAPGKERELVAAISWGGNTYYADSVKGRFTISRDNAKNTVYFQMNSLKPEDTALYYCATEVRYQGWRDYWGQVTQVTVSS | high polyreactivity
QVQLVESGGGLVQAGGSLRLSCAASGRIFAGYAMGWYRKAPGKERELVASIRSSGSTYYADSVKGRFTISRDNAKNTVYLQMNSLKPEDTAVYYCAARSGYFRSRFDYWGQGTQVTVSS | high polyreactivity
QVQLVESGGGLDQAGGSHRLSCAASGFTFYPNAMGWYRQAPGKERELVASINSDGSTNYADSVKGRFTISRDNAKNTVYLPMNSLIPEDTAVYYCAAGYFWGRIKYYYWVQGTQVTVSS | high polyreactivity
QVQLVESGGGLVQAGGSLRLSCAASGRICVTYAIGRYRQAPGKERELVAASTYSGGSTYYADSVKGRFTISRDNAKNTVYLQMNSLKPEDTAVYYCGWTYHYHRESWGQGTQVTVSS | low polyreactivity
QVQLVESGGGLVQAGGSLRLSCAASGRTFRSNAMGWYRQAPGKERELVAAIRNSDGSTNYADSVKGRFTISRDNAKNTVYLQMNSLKPEDTAVYYCAASSTVGRITRILYYYWGQGTQVTVSS | high polyreactivity
QVQLVESGGGLVQAGGSLRLSCAASGRTFGANTMGWYRPAPGKERELVAAITWSGDSTYYADSVKGRFTISRDNAKNTVYLQMNSLKPEDTAVYYCAARLWRQYYYWGQGTQVTVSS | high polyreactivity
QVQLVESGGGLVQAGGSLRLSCAASGFIFYRYAMGWYRQAPGKERELVATIRYSGGSTYYADSVKGRFTISRDNAKNTVYLQMNSLKPEDTAVYYCNARRWYLPRRLYDYWGQGTQVTVSS | high polyreactivity
QVQLVESGGGLVQAGGSLRLSCAASGSIFRPNVMGWYRQEPGKERELVATISWSGGSTYYADSVKGRFTISRDNASNTVYLQMNSLKPEDTAVYYCAALWPYGYWGQGTEVTVSS | low polyreactivity
QVQLVESGVGLVQAGGSLRLSCAPSGRIFIYYAMGWYRQAPGKERELVATITASGDSTYYADSVKGRFTISRDNAKNTVYFQMNSLKPEDTAVYYCAADDGDYYEVDYWGQGTQVTVSS | low polyreactivity
QVQLVESGGGLVQAGGSLRLSCAASGSTLAQYAMGWYRQAPGKERELVAAISRRGASTYYADSVKGRFTISRDNAKNTGYLQMNSLKPEDTAVYYCNAVRGEKMGYWGQGTQVTVSS | high polyreactivity

Sequence | polyreactivity (PSR sort gate)
QVQLVESGGGLVQAGGSLRLSCAASGSIFPPYAIGSYRQAPGKERELVATITIRGGSTYYADSVKGRFTISRDNAKNTVYLQMNSLKPEDTAVYYCAADYTKYYRRYYYWGQGTQVTVSS | high polyreactivity
QVQLVESGGGLVQAGGSIRLSCAASGRIFYPYAMGWYRPAPGKDRELVAAIRRSGVDTYYADSVKGRFTISRDNAKQTVYLQMNSLKPEDTAVYYCAADPYWFFAHYDSWGQGTQVTVSS | low polyreactivity
QVQLEESGGGLVQAGGSLRLSCAASGRTFSVNPMRWYRQAPGKERELVAAISWSTGSTYYADSVKGRFTISRDNAKNTVYLQMNSLKPEDTAVYYCAKLYEYRRSRYRTYGYWGQGTQVTVSS | high polyreactivity
QEQLVESGGGLVQAGGSLRISCAASGFIFGFYAMGWYRQAPGKERELVAAISWSAGSTYFADSVMGRFTISRDNAKNTVYLQMYSLKPEDTAVYYCAAYFDFRDDAVTYDYWGQGTQVTVSS | low polyreactivity
QVQLVESGGGLVQAGGSLRLSCAASGNTFNPNAMGWYRQAPGKERELVAVIRFRGGSTYYADSVKGRFTISRDNAKNTVYLQMNSLKPEDTAVYYCAADFLYYYLRYYYWGQGTQVTVSS | high polyreactivity
QVQLVESGGGLVQAGGSLRLSCAASGSIFWSNDMGWYRQAPGKERELVAAITITGDTTYYADSVKGRFTISRDNAKNTVYLQMNSLKPEDTAVYYCAAVEVRRVADYGFCLLDYWGQGTQVTVSS | high polyreactivity
QVQLVESGGGLVQAGGSLRLSCAASGSTFYPYAMGWYRPAHGKERELVAAITSRVGRTYYADSVKGRFTISRDNAKNTVYLQMNSLKPEDTAVYYCAAKIFIRVHYYSYRMYYWGQGTQVTVSS | low polyreactivity
QVQLVESWGGLVQAGGSLRLSCAASGLIFQTYTMGWYKQAPGKERELVAAITSSGGRTYYADSVKGRFTISRDNAKNTVYLQKNSLKPEDTAVYYCAARGPPSAGMGYWGQGTQVTVSS | high polyreactivity
QVQLVESGGGLVQAGGSLRLSCAASGFIFPYDAMGWYRQAPGKERELVAAITYRDGSTYYADSVKGRFTISRDNAKNTVYLQMNSLKPEDTAVYYCAADRYVYWDLYGYWGQGTQVTVSS | low polyreactivity
QVQLVESGGGLFQAGGSLRLSCAASGFIVRRYAMGWYRQAPGKEREMVAAITSGGGRTYYADSVKGRYTISRDNAKYTVNLEMISLKPEDTGVYDCARVQRCDYDYWGQGTQVTVSS | high polyreactivity
QVQLVESGGGLVQAGGSLRLSCAASGSIFRQYAMGWYRQAPPKDRELVAAISSVGRTYYADSVKGRFTISRDNAKNTVYLQMNSLKPEDTAVYYCAARPYKFARYDYWGQGTQVTVSS | high polyreactivity
QVQLVESGGGLVQAGGSLRLSCAASGITIKRYAMGWYRQAPGKEREFVATISQSGTSTYYADSVKGRFTISRDNAKTTVYLQMISLKPEDTAVYYCAADFIGYWYGYYSWGQGTQVTVSS | low polyreactivity
QVQLVESGGGLVQAGGSHRLSCSASGLTFSYYAMGGYRQEPGKERELVAAITRTGDRTYYADSVKGRFTISRDNAKNTVYLQMNSLKPEDTAVYYCAAKWRIVGSRQWYDYWGQGTQVTVSS | high polyreactivity
QVQLEESGGGLVQARVSLRLSSAASGFTLWNYAMGLYRQAPGKERELVAGINSGGRTYYADSVKGRFTISRDNAKNTVYLQMKSLKPEDTAVFYCNARGWSSFSHNSYFMDYWGQGTQVTVSS | high polyreactivity
QVQLVESGGGLVQAGGSLRLSFAASGRIFDVYAMGRYRQAPGKERELVAAITWSGGRTYYADSVKGRFTLSRDNAKNTVYLQMNSLKPEDTAVYYCAAEKPYVRGYLGTYDYWGQGTQVTVSS | low polyreactivity
QVQLVESGGGLVQAGGSLRLTCAASGRIFYQYAMGWYRQAPGKEMDLVASITTSGGNTYYADSVKGRFTISRDNAKNTVYLQMNSLKPEDTAVYYCAARFNWRQWLYEYWGQGTQVTVSS | low polyreactivity
PVQLVESGGGLGQAGGSLRLSCAASGLTFGRYAMGWYRQAPGKERELVAAITRSGGRTYYADSVKGRFTISRDNAKNTVYLQMNSLKPEDTAVYYCNTRSHLGAPGDPDDYWGQGTQVTVTS | high polyreactivity
QVQLVESGGGLVQAGGSLRLSCAASGITIVNYVMGWYRQAPGKERELVAAISIGGGTYYADSVKGRFTISRDNEKNTVYLQMNSLKPEDTAVYYCNASYGGLSFYIGVYVTGYDYWGQGTQVTVSS | low polyreactivity
QVQLVESGGGLVQAGGSLRLSCAASGSTFNTYAMGWYRQAPGKERELVAAITFSVGSTYYADSVKGRFTISRDNAKNTVYLQMNSLKPEDTAVYYCARRGAYTGRYDYWGQGTQVTVSS | high polyreactivity
QVQLVESGGGLVQAGGSLRLSCAASGRIFSGYVMGWYRQAPGKERELVAVISRSGGSTYYADSVKGRFTISRDNAKNTVYLLMNSLKPEDTAVYYCAAKHIDGSRGYVYWGQGTQVTVSS | low polyreactivity
